Assay: soluble on expression in E. coli; label from the status in PepcDB or PDB records

Question: Which “soluble on expression in E. coli” value does the source give for “MFDKHTHTLIAQRLDQAEKQREQIRAISLDYPEITIEDAYAVQREWVRLKIAESRTLKGHKIGLTSKAMQASSQISEPDYGALLDDMFFHDGSDIPTDRFIVPRIEVELAFVLAKPLRGPNCTLFDVYNATDYVIPALELIDARCHNIDPETQRPRKVFDTISDNAANAGVILGGRPIKPDELDLRWISALMYRNGVIEETGVAAGVLNHPANGVAWLANKLAPYDVQLETGQIILGGSFTLPVPARKGDTFHVDYGNMGSISCRFV” here?
Answer: not soluble

Question: Which “soluble on expression in E. coli” value does the source give for “MADTFFFTPSRRLTVANVAELTGAKLLNPEFSNTVINTLSSLESAGKGSLVFVEHRKFSDALVGSSAVAVFCTNEIVFKVPESMAILVTSTPQRDFAQIGRILFPDSVKPMPWFGQREISPHAHIHPSAKLAGDVCIEAGAVIGRNVEIGSGSLIASTAVIGENCRIGCDCYIAPKVTVQYSLIGDKVHLYPGACIGQDGFGYIGGASGIEKVPQLGRVIIEDGVEIGANTTIDRGTFEDTIIGEGSKIDNLVQIAHNVKIGRYCLIAAQCGIAGSTSIGDMSQLGGSVGVADHIVIGKYVQIAAGSGVMNDIPDGEKWGGSPARPFKQWFREVAALRSIGKVKKEKR” here?
Answer: not soluble

Question: For “MGHHHHHHSHMRCQESMSAVLTAEQALKLVGEMFVYHMPFNRALGLELERYEKAFAQLAFNNQPMMVGNWAQSILHGGVIASALDVAAGLVCVGSTLTRHETISEDELRQRLSRMGTIDLRVDYLRPGRGNRFTATSSLLRAGNKVAVARVELHNEDQLYIASATATYMVG”, which “soluble on expression in E. coli” value is on record?
Answer: not soluble

Question: For “MAAPGPALCLFDVDGTLTAPRQKITKEMDDFLQKLRQKIKIGVVGGSDFEKVQEQLGNDVVEKYDYVFPENGLVAYKDGKLLCRQNIQSHLGEALIQDLINYCLSYIAKIKLPKKRGTFIEFRNGMLNVSPIGRSCSQEERIEFYELDKKENIRQKFVADLRKEFAGKGLTFSIGGQISFDVFPDGWDKRYCLRHVENDGYKTIYFFGDKTMPGGNDHEIFTDPRTMGYSVTAPEDTRRICELLFS”, which “soluble on expression in E. coli” value is on record?
Answer: soluble

Question: Which “soluble on expression in E. coli” value does the source give for “MGSDKIHHHHHHMLSLGLADSRAISKANSGSERHVREVIKRLSLRYKLYYLPTTHAFLDAISEDQLKEIKKFAKVPSFFEYLLDKKLGKVSLLRELFTFSPLAKELVREYEREIGILDFIYVPHTYRIQLMPSILFSKLSRGKYGMLLMTDPHNSLLEKESFFKCVNVWSKIWFSRKSAIEFCSFQRLQNIAFLLKAIKTKPSFISVMNKCALNYTGLPKYFNTKVLSPPHAFNNLALKYRNFDKEDYLVFLGRINTAKGANEALEVGKHVKLKMIGYKEQEFIVKQARSFGIEVIENVSEEEKFEILSKARALVLPSHQESFSVTILEALAVGTPVITYDLPSLTSTYNFKPVFFVKEFDVKGLVNTALEVYNMKKIEEMFNDERLEEFIKMHSSWDNVSNAVDKLITEAIQE” here?
Answer: not soluble

Question: For “MKKLKMKKLISLLLTLTMILALTACGAKETGKSQDESDLNYVKSKGKLIIGYTNYAPMNYTDENGVFTGFDTELAILTCEKLGVEPEFVEINWDTKEVELNAKSIDCIWNGLTIDDDRKAKMEITQPYVKNAQVVLVKEGTEYNGTESLIGKTVVAEQSSAGEKTIMADENLKKANYVPKTLQTDCLMELKSGTADAAVLDLTLAKTMTGEGTSYEDIVIVDYLAEENYGVAFRKGSDICAEVNKIFDDFLADGTMAALAEKYGLELAE”, which “soluble on expression in E. coli” value is on record?
Answer: not soluble

Question: For “SAVPAILQVITESTGLGFAAVARVTEDSWTACAVLDNLGFGLKPGGELELISTICHEIRASHKPVVIDHVAEDELFCAHHTPRRYNFQSYISIPIFLTDGSFFGTICALDPKPAKLTGTPIEAMMVSFARLLALQIEAEENMQRVQ”, which “soluble on expression in E. coli” value is on record?
Answer: soluble

Question: For “MAHHHHHHMTEYEEKERKTSLAALRRFVKHCGPTRFTFITRIPLSRNTNQVNGTLLLENGDLTVCAQDMKANIADIREDIASFSVPQHQDFIRAFEEAKNMLKNELAALQEHKSILMVQYEMARP”, which “soluble on expression in E. coli” value is on record?
Answer: not soluble

Question: For “MTLKGRIHSFESFGTLDGPGIRFVVFMQGCPLRCIYCHNRDTWDVNAGSEYTPRQVIDEMMKYIDYIKVSGGGITVTGGEPVLQADFVAEVFRLAKEQGVHTALDTNGFADIEKVERLIKYTDLVLLDIKHAREDKHKIITGVSNEKIKRFALYLSDQGVPIWIRYVLVPGYTDDEDDLKMAADFIKKLKTVEKIEVLPYHNMGAYKWEKLGQKYMLEGVKGPSAQEVEKAKRILSGK”, which “soluble on expression in E. coli” value is on record?
Answer: soluble
